From paper PMC4220976, “Small-angle neutron scattering reveals the assembly mode and oligomeric architecture of TET, a large, dodecameric aminopeptidase” (Acta Crystallographica Section D: Biological Crystallography, 2014)

B1: Pyrococcus horikoshii TET3 aminopeptidase (PhTET3), hydrogenated (enzyme)
chain: MDLKGGESMVDWKLMQEIIEAPGVSGYEHLGIRDIVVDVLKEVADEVKVDKLGNVIAHFKGSSPRIMVAAHMDKIGVMVNHIDKDGYLHIVPIGGVLPETLVAQRIRFFTEKGERYGVVGVLPPHLRRGQEDKGSKIDWDQIVVDVGASSKEEAEEMGFRVGTVGEFAPNFTRLNEHRFATPYLDDRICLYAMIEAARQLGDHEADIYIVGSVQEEVGLRGARVASYAINPEVGIAMDVTFAKQPHDKGKIVPELGKGPVMDVGPNINPKLRAFADEVAKKYEIPLQVEPSPRPTGTDANVMQINREGVATAVLSIPIRYMHSQVELADARDVDNTIKLAKALLEELKPMDFTP
notes: PhTET3, lysyl-aminopeptidase of the M42 family, Pyrococcus horikoshii; It was studied as a dimer (de-oligomerization buffer) and as a dodecamer; also called hPhTET3; hPhTET3 12s; source: E. coli, purified (heating at 85°C, Resource Q, Superose 6; as described by Durá et al., 2009)
B2: Pyrococcus horikoshii TET2 aminopeptidase (PhTET2), wild type (enzyme)
chain: MEVRNMVDYELLKKVVEAPGVSGYEFLGIRDVVIEEIKDYVDEVKVDKLGNVIAHKKGEGPKVMIAAHMDQIGLMVTHIEKNGFLRVAPIGGVDPKTLIAQRFKVWIDKGKFIYGVGASVPPHIQKPEDRKKAPDWDQIFIDIGAESKEEAEDMGVKIGTVITWDGRLERLGKHRFVSIAFDDRIAVYTILEVAKQLKDAKADVYFVATVQEEVGLRGARTSAFGIEPDYGFAIDVTIAADIPGTPEHKQVTHLGKGTAIKIMDRSVICHPTIVRWLEELAKKHEIPYQLEILLGGGTDAGAIHLTKAGVPTGALSVPARYIHSNTEVVDERDVDATVELMTKALENIHELKI
modifications: dPhTET2: random-fractional deuteration, final level approximately 75%; hPhTET2: hydrogenated
notes: PhTET2, leucyl-aminopeptidase of the M42 family, Pyrococcus horikoshii; It was studied as a dimer (de-oligomerization buffer) and as a dodecamer; The preparation of hPhTET2 is not described separately; also called dPhTET2; hPhTET2; source: E. coli, purified (heating at 85°C, Resource Q, Superose 6); dPhTET2 grown in minimal medium with 85% D2O
B3: PhTET2 pentamutant (R217S, R220S, F224S, H248S and I292A) (enzyme, Pyrococcus horikoshii)
chain: MEVRNMVDYELLKKVVEAPGVSGYEFLGIRDVVIEEIKDYVDEVKVDKLGNVIAHKKGEGPKVMIAAHMDQIGLMVTHIEKNGFLRVAPIGGVDPKTLIAQRFKVWIDKGKFIYGVGASVPPHIQKPEDRKKAPDWDQIFIDIGAESKEEAEDMGVKIGTVITWDGRLERLGKHRFVSIAFDDRIAVYTILEVAKQLKDAKADVYFVATVQEEVGLSGASTSASGIEPDYGFAIDVTIAADIPGTPESKQVTHLGKGTAIKIMDRSVICHPTIVRWLEELAKKHEIPYQLEALLGGGTDAGAIHLTKAGVPTGALSVPARYIHSNTEVVDERDVDATVELMTKALENIHELKI
modifications: deuterated form: random-fractional deuteration, final level approximately 75%; a hydrogenated form was also used
notes: PhTET2, leucyl-aminopeptidase of the M42 family, Pyrococcus horikoshii, with five mutations at the interface between the dimers; The mutant was designed in Appolaire et al. (2013) to slow the oligomerization process; Its deuterated and hydrogenated preparations are kept as one molecule; also called pentamutant PhTET2; mutated PhTET2; source: E. coli, purified (heating at 85°C, Resource Q, …)

What was measured:
[1] = target: the molecule itself; experiment: small-angle neutron scattering (SANS); homododecameric reference samples: dPhTET2 12s in 42% D2O and hPhTET3 12s in 100% D2O; 20 mM Tris-HCl, 150 mM NaCl pH 7.5; 20°C
[2] = target: the molecule itself; experiment: small-angle neutron scattering (SANS) with contrast variation; peak 1 (particle 1) heterododecamer of dPhTET2 and hPhTET3; 4.5 mg/ml; 20 mM Tris-HCl, 150 mM NaCl pH 7.5; 0, 42, 70 and 100% D2O; 20 to 80°C; mass calibrated against water; models scored with CRYSON
[3] = target: the molecule itself; experiment: small-angle neutron scattering (SANS) with contrast variation; peak 2 (particle 2) heterododecamer of dPhTET2 and hPhTET3; 4.5 mg/ml; 20 mM Tris-HCl, 150 mM NaCl pH 7.5; 0, 49, 70 and 100% D2O; 20 to 80°C; mass calibrated against water; models scored with CRYSON
[4] = target: the molecule itself; experiment: SEC; Superose 6 (native polyacrylamide gels also run) after dialysis of the dodecamers against de-oligomerization buffer: 50 mM CAPS, 20 mM NaCl, 20 mM EDTA pH 10
[5] = target: B1; experiment: small-angle neutron scattering (SANS) with contrast variation; peak 1 (particle 1) heterododecamer of dPhTET2 and hPhTET3; 4.5 mg/ml; 20 mM Tris-HCl, 150 mM NaCl pH 7.5; 0, 42, 70 and 100% D2O; 20 to 80°C; mass calibrated against water; models scored with CRYSON; conditions: both partners purified
[6] = target: B1; experiment: small-angle neutron scattering (SANS) with contrast variation; peak 2 (particle 2) heterododecamer of dPhTET2 and hPhTET3; 4.5 mg/ml; 20 mM Tris-HCl, 150 mM NaCl pH 7.5; 0, 49, 70 and 100% D2O; 20 to 80°C; mass calibrated against water; models scored with CRYSON; conditions: both partners purified
[7] = target: the molecule itself; experiment: small-angle neutron scattering (SANS); 1:1 mixtures of preformed homododecameric deuterated and hydrogenated PhTET2 (wild type or pentamutant) in 42% or 100% D2O; temperature raised from 20 to 80°C, 4 h at each temperature

Binder	stoichiometry N [1]	stoichiometry N [2]	stoichiometry N [3]	stoichiometry N [4]	stoichiometry N [5]	stoichiometry N [6]	stoichiometry N [7]
B1	12	6	2	–	–	–	–
B2	12	6	–	2	1 dPhTET2:hPhTET3 (6:6)	2 dPhTET2:hPhTET3 (8:4)	–
B3	–	–	–	–	–	–	12
